Target: recombinant SARS-CoV-2 RBD, Prototype (SARS-CoV-2, prototype) (UniProt P0DTC2)
Test: BLI

NIH-CoVnb-112 (VHH)
Kd: 1.59 nM
koff: 0.000236 s⁻¹
